Assay results: patent publication US20120117670A1 (U3 PHARMA, published 2012)
Substitutions are numbered along the chain they refer to. Numbers in names are those of the source.

T1: Human AXL-Fc (R&D Systems, #154-AL) (human, UniProt P30530 26-451)
T1 construct: Bought reagent; also called human AXL-Fc fusion protein; human AXL-Fc protein; not shown: Fc part of the bought fusion protein
T1 sequence: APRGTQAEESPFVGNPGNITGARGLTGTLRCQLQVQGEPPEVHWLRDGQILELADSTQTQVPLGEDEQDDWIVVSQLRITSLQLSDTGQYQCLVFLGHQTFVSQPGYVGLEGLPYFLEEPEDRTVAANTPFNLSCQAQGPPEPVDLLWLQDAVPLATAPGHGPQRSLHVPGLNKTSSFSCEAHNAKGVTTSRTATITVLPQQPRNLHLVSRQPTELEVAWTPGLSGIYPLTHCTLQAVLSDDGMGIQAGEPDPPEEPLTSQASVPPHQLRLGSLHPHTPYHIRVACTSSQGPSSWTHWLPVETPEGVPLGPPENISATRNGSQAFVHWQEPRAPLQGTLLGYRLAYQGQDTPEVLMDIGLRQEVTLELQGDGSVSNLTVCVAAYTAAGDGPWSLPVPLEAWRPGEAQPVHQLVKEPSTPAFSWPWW

B1: h#11D5-T5 (antibody, human IgG1, kappa)
heavy: not shown
light: DIQMTQSPSSLSASVGDRVTITCRASQDIGNYLSWFQQKPGKAPRRMIYGAIKLAVGVPSRFSGSGSGTDYTLTISSLQPEDFATYYCLQYIQFPLTFGGGTKVEIKRTVAAPSVFIFPPSDEQLKSGTASVVCLLNNFYPREAKVQWKVDNALQSGNSQESVTEQDSKDSTYSLSSTLTLSKADYEKHKVYACEVTHQGLSSPVTKSFNRGEC
notes: Humanized IgG1/kappa
B2: h#11D5-T2 (antibody, human IgG1, kappa, V domains shown)
VH: EVQLQESGPGLVKPSQTLSLTCTVSGYSITSNYWGWIRQPPGMGLEWIGHITNSGNTTYNPSLKSRISISVDTSENQFSLKLSSVTPADTAVYYCAKGAFDYWGQGTLVTVSS
VL: DIQMTQSPSSLSASVGDRVTITCRASQDIGNYLSWFQQKPGKAPRLMIYGAIKLAVGVPSRFSGSGSGTDYTLTISSLQPEDFATYYCLQYIQFPLTFGQGTKLEIKR
notes: Humanized IgG1/kappa
B3: h#11D5-T6 (antibody, human IgG1, kappa)
heavy: not shown
light: B1 light with G100Q
notes: Humanized IgG1/kappa
B4: h#11D5-T4 (antibody, human IgG1, kappa, V domains shown)
VH: QVQLQQWGAGLLKPSETLSLTCTVSGYSITSNYWGWIRQPPGKGLEWIGHITNSGNTTYNPSLKSRVTISRDTSKNQFSLKLSSVTAADTAVYYCAKGAFDYWGQGTLVTVSS
VL: B2 VL with F36Y, R45K, L46R, M47L, D70E, Y71F, Q100G, L104V
notes: Humanized IgG1/kappa
B5: h#11D5-T1 (antibody, human IgG1, kappa, V domains shown)
VH: B2 VH with E1Q, I67V, S68T
VL: B2 VL with I2V, F36Y, R45K, M47L, Y71F
notes: Humanized antibody of rat #11D5 made from pEF6KCL/h#11D5-T1L and pEF1/FCCU/h#11D5-T1H; also called T1 (humanized #11D5)
B6: h#11D5-T3 (antibody, human IgG1, kappa, V domains shown)
VH: B2 VH with Q39K, P40F, M43N, G44K, L45M, V71R, E75K
VL: B2 VL with P40V, A43S, L46R, G66R, T69S, T85I, Q100S
notes: Humanized IgG1/kappa
B7: h#11B7-T3 (antibody, human IgG1, kappa, V domains shown)
VH: QVQLQESGPGLVKPSQTLSLTCAVSGYSITSNYWGWIRKPPGDGLEWMGYITYSGSTSYNPSLKSRISITRDTSKNQFSLKLSSVTAADTAVYYCAITTFYYWGQGTLVTVSS
VL: DIQMTQSPSSLSASVGDRVTITCRASQDIGNYLRWFQQKPGKAPKLMISGATNLAAGVPSRFSGSRSGSDYTLTISSLQPEDFATYYCLQSKESPWTFGGGTKVEIKR
notes: Humanized IgG1/kappa
B8: h#11B7-T2 (antibody, human IgG1, kappa, V domains shown)
VH: B7 VH with V2I, K39Q, D43K, T70S, R71V
VL: B7 VL with S65T, R66G, S69T, L73F
notes: Humanized IgG1/kappa
B9: h#11B7-T4 (antibody, human IgG1, kappa)
heavy: not shown
light: DIQMTQSPSSLSASVGDRVTITCRASQDIGNYLRWYQQKPGKAPKLLISGATNLAAGVPSRFSGSGSGSDFTLTISSLQPEDFATYYCLQSKESPWTFGQGTKLEIKRTVAAPSVFIFPPSDEQLKSGTASVVCLLNNFYPREAKVQWKVDNALQSGNSQESVTEQDSKDSTYSLSSTLTLSKADYEKHKVYACEVTHQGLSSPVTKSFNRGEC
notes: Humanized IgG1/kappa
B10: h#11B7-T5 (antibody, human IgG1, kappa)
heavy: not shown
light: B9 light with Y36F, L47M, F71Y
notes: Humanized IgG1/kappa
B11: h#11B7-T6 (antibody, human IgG1, kappa)
heavy: not shown
light: B9 light with Y36F, L47M, F71Y, L104V
notes: Humanized IgG1/kappa
B12: h#11B7-T22 (antibody, human IgG1, kappa)
heavy: not shown
light: B9 light with Y36F, F71Y, L104V
notes: Humanized IgG1/kappa
B13: h#11B7-T23 (antibody, human IgG1, kappa, V domains shown)
VH: B7 VH with Q16E, A23T, K39Q, D43K, M48I, I67V, S68T, T70S
VL: B7 VL with R66G, Y71F, G100Q
notes: Humanized IgG1/kappa
B14: h#11B7-T27 (antibody, human IgG1, kappa)
heavy: not shown
light: B9 light with L104V
notes: Humanized IgG1/kappa
B15: h#11B7-T26 (antibody, human IgG1, kappa, V domains shown)
VH: B7 VH with Q16E, A23T, K39Q, D43K, M48I, I67V, S68T, T70S
VL: B7 VL with F36Y, R66G, Y71F, G100Q
notes: Humanized IgG1/kappa
B16: h#11B7-T24 (antibody, human IgG1, kappa, V domains shown)
VH: B7 VH with Q16E, A23T, K39Q, D43K, M48I, I67V, S68T, T70S
VL: B7 VL with F36Y, M47L, R66G, G100Q
notes: Humanized IgG1/kappa
B17: h#11B7-T30 (antibody, human IgG1, kappa)
heavy: not shown
light: B9 light with Y36F, F71Y
notes: Humanized IgG1/kappa
B18: h#11B7-T29 (antibody, human IgG1, kappa)
heavy: not shown
light: B9 light with Y36F
notes: Humanized IgG1/kappa
B19: h#11B7-T31 (antibody, human IgG1, kappa)
heavy: not shown
light: B9 light with Y36F
notes: Humanized IgG1/kappa
B20: h#11B7-T28 (antibody, human IgG1, kappa)
heavy: not shown
light: B9 light with Y36F, F71Y
notes: Humanized IgG1/kappa

target: T1, Human AXL-Fc (R&D Systems, #154-AL); assay: ELISA on plate-adsorbed human AXL-Fc (1 ug/ml), 5-fold antibody dilution series, AP-conjugated goat anti-human IgG, fluorescent substrate (Example 14)

Row | Binder | EC50 (read off the curve)
1 | B1 | ~0.01 µg/mL
2 | B2 | ~0.01 µg/mL
3 | B3 | ~0.01 µg/mL
4 | B4 | ~0.01 µg/mL
5 | B5 | ~0.02 µg/mL
6 | B6 | ~0.02 µg/mL

target: T1, Human AXL-Fc (R&D Systems, #154-AL); assay: ELISA on plate-adsorbed human AXL-Fc (1 ug/ml), 5-fold antibody dilution series, AP-conjugated goat anti-human IgG, fluorescent substrate (Example 13)

Row | Binder | EC50 (read off the curve)
7 | B7 | ~0.02 µg/mL
8 | B8 | ~0.03 µg/mL
9 | B9 | ~0.06 µg/mL
10 | B10 | ~0.02 µg/mL
11 | B11 | ~0.02 µg/mL

target: T1, Human AXL-Fc (R&D Systems, #154-AL); assay: as above; remark: another data set of the same source

Row | Binder | EC50 (read off the curve)
12 | B12 | ~0.02 µg/mL
13 | B13 | ~0.01 µg/mL
14 | B14 | ~0.02 µg/mL
15 | B15 | ~0.03 µg/mL
16 | B16 | ~0.02 µg/mL

target: T1, Human AXL-Fc (R&D Systems, #154-AL); assay: ELISA on plate-adsorbed human AXL-Fc (1 ug/ml), 5-fold antibody dilution series, AP-conjugated goat anti-human IgG, fluorescent substrate (Example 23)

Row | Binder | EC50 (read off the curve)
17 | B17 | ~0.04 µg/mL
18 | B18 | ~0.04 µg/mL
19 | B19 | ~0.04 µg/mL
20 | B20 | ~0.04 µg/mL
